Measured values as given in article PMC8373167 (Advanced Science, 2021).

Tests used:
ACE2 [1] = biological target: T1, ACE2 (Homo sapiens, UniProt Q9BYF1); assay: biochemical
Target sequence in this assay (Q9BYF1 18-805): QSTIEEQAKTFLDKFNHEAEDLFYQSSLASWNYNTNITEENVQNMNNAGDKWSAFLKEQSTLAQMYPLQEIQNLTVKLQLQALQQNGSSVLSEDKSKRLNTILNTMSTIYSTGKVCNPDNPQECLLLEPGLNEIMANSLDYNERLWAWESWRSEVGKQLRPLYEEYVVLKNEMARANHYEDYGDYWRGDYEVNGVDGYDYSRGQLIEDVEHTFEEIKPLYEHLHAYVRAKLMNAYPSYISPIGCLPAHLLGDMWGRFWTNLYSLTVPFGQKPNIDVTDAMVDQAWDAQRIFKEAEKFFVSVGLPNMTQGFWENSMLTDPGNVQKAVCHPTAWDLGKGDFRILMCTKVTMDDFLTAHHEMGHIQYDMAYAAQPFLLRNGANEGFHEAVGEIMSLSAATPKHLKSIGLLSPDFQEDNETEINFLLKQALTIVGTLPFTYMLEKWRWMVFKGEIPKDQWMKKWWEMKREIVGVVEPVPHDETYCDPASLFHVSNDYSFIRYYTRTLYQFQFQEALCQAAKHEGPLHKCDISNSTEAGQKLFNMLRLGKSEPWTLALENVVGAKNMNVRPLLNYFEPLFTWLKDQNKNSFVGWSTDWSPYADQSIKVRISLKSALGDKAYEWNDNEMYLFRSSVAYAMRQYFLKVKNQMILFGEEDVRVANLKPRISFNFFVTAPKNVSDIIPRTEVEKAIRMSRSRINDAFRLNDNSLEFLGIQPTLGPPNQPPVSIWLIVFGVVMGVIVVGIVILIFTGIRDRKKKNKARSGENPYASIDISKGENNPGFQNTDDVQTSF
Method: Briefly, recombinant human ACE2 protein (50 µg mL^−1; BP003061) was immobilized on the surface of the nanogold sensor chip, after the chip was activated by 1‐ethyl‐3‐(3‐dimethylaminopropyl)carbodiimide/N‐hydroxysuccinimide. […] K D, ka and kd were calculated using Trace Drawer Evaluation version 2.0 (Trace Software International, Saint‐Romain, France).

[2] = assay type: in vivo, mice
Method: Supplemental Figure 5. Body weight monitoring following DX600 exposure was conducted in mice for 25 days. The experiment was carried out in 10 mice at 4-weeks of age. The mice were either […]
was repeated on day 0, day 4, day 11, day 18 and day 25, and the weight of the mice was […]
group (n = 5, weight from 26.5 ± 5.2 g to 41.2 ± 3.1 g) and the control group (n = 5, weight from […]

ACE2 [3] = conditions: cited from earlier work
ACE2 [4] = biological target: T1, ACE2; assay: SPR; recombinant human ACE2 (50 ug/mL) immobilised on a nanogold sensor chip activated with EDC/NHS; dilutions of peptide flowed at 20 uL/min for 7 min; Nicoya OpenSPR
Target sequence in this assay (Q9BYF1 18-740): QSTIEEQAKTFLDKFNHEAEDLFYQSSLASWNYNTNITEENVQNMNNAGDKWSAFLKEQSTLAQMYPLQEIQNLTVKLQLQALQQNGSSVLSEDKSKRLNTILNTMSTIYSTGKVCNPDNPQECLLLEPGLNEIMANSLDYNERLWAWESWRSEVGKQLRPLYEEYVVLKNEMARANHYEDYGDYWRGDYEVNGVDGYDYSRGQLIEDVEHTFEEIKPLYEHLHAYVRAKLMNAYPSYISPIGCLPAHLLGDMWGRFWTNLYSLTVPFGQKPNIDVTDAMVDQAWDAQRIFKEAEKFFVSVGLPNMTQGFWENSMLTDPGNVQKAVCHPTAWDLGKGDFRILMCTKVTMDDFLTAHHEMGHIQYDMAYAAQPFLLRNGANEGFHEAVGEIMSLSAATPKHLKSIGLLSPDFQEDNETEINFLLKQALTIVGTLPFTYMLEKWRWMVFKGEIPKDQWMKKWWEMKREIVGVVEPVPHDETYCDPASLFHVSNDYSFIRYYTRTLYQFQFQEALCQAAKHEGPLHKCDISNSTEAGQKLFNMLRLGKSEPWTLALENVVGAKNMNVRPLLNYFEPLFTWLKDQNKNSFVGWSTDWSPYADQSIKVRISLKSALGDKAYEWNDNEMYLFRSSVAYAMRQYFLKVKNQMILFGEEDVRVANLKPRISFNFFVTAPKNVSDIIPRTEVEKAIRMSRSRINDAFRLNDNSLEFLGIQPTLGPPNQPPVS

[5] = assay type: physicochemical; conditions: 0.01 M PBS, 37 °C, 50 µL tracer in 450 µL PBS, sampled at 1, 2, 4 h; stated within 2 h
Method: The solution was analyzed by radio‐HPLC to assess the radiochemical purity. The HPLC was eluted with water‐CH3CN system (Phase A: 0.1% TFA H2O; Phase B: 0.1% TFA CH3CN) using gradient elution (0–5 min 20% B; 5–10 min 20%–80% B; 10–12 min 80% B; 12–15 min 80%–20% B) at a flow rate of 1.0 mL min^−1. The radiolabeling yield was 59.9 ± 3.9% (non‐decay corrected, n = 10) and the radiochemical purity was over 95%. […] At 1, 2, and 4 h time points, 10 µL aliquot was analyzed by radio‐HPLC to assess the radiochemical purity.
Supplemental Figure 2. […] (A) Saturation binding assay […]
assay of DX600. (C) hACE2 expression specifically determine the accumulation of 64Cu-HZ20 over HEK293-hACE2 and HEK293-WT cells for 2 h incubation at 37 °C. (D) Stability analysis

ACE2 [6] = biological target: T1, ACE2; conditions: in vivo
Target sequence in this assay (Q9BYF1 18-805): as the sequence (Q9BYF1 18-805) above

ACE2 [7] = biological target: T1, ACE2; conditions: PET/MR 2 h after injection, female volunteers #005 and #012
Target sequence in this assay (Q9BYF1 18-805): as above

in vivo = conditions: female, athymic nude, mouse, HepG2 xenograft tumor, iv, 3.7 MBq, total radioactivity
Method: 5 × 10^6 of HepG2 cells were inoculated into the right front shoulder region of the mice to build the xenograft tumor model with ACE2 expression. When the tumor volumes were estimated to be 450–800 mm^3, the mice were used for the studies. […] Scans were performed at 60, 120, and 180 min after administration. […] Subsequently, animals were scanned at 60, 120, and 180 min post‐injection. Regions of interest were defined over tumor, heart, liver, lung, kidney, and muscle and uptake computed relative to the injected activity.
Tumor, heart, liver, lung, kidney and muscle were selected for analysis.

clinical = conditions: human, in vivo, iv, total radioactivity

## CC(C)C[C@@H]1NC(=O)[C@@H]2CCCN2C(=O)[C@H](CO)NC(=O)[C@@H](NC(=O)[C@H](Cc2c[nH]cn2)NC(=O)[C@H](CO)NC(=O)[C@H](Cc2ccc(O)cc2)NC(=O)[C@H](CC(=O)O)NC(=O)CNC(=O)CN2CCN(CC(=O)O)CCN(CC(=O)O)CCN(CC(=O)O)CC2)CSSC[C@@H](C(=O)N[C@H](C(=O)N[C@@H](Cc2ccc(O)cc2)C(=O)N2CCC[C@H]2C(=O)N[C@@H](CC(=O)O)C(=O)N2CCC[C@H]2C(=O)N[C@@H](CCC(=O)O)C(=O)NCC(=O)NCC(=O)NCC(N)=O)[C@@H](C)O)NC(=O)[C@H](CCCCN)NC(=O)[C@H](Cc2c[nH]c3ccccc23)NC(=O)[C@H](Cc2c[nH]c3ccccc23)NC(=O)[C@@H]2CCCN2C(=O)[C@H](Cc2ccc(O)cc2)NC(=O)[C@H](Cc2ccc(O)cc2)NC(=O)[C@H](CCCNC(=N)N)NC1=O [HZ20]
ACE2 [1]
  Kd: 100 nM

## CC(=O)NCC(=O)N[C@@H](CC(=O)O)C(=O)N[C@@H](Cc1ccc(O)cc1)C(=O)N[C@@H](CO)C(=O)N[C@@H](Cc1cnc[nH]1)C(=O)N[C@H]1CSSC[C@@H](C(=O)N[C@H](C(=O)N[C@@H](Cc2ccc(O)cc2)C(=O)N2CCC[C@H]2C(=O)N[C@@H](CC(=O)O)C(=O)N2CCC[C@H]2C(=O)N[C@@H](CCC(=O)O)C(=O)NCC(=O)NCC(=O)NCC(N)=O)[C@@H](C)O)NC(=O)[C@H](CCCCN)NC(=O)[C@H](Cc2c[nH]c3ccccc23)NC(=O)[C@H](Cc2c[nH]c3ccccc23)NC(=O)[C@@H]2CCCN2C(=O)[C@H](Cc2ccc(O)cc2)NC(=O)[C@H](Cc2ccc(O)cc2)NC(=O)[C@H](CCCNC(=N)N)NC(=O)[C@H](CC(C)C)NC(=O)[C@@H]2CCCN2C(=O)[C@H](CO)NC1=O [DX600]
[2]; mice 4 weeks old, n = 5, injections day 0, 4, 11, 18, 25
  body weight at start: 26.5 ± 5.2 g
[2]; mice, n = 5, 25 days, injections day 0, 4, 11, 18, 25
  body weight at end: 41.2 ± 3.1 g
[2]; mice, n = 5 per group, 25 days
  body weight versus saline control group: no significant difference
ACE2 [3]
  stability to ACE2 catalyzed hydrolysis: stable

## DX600 (peptide)
ACE2 [4]
  Kd: 98.7 nM

## DOTA-DX600 (peptide)
ACE2 [4]
  Kd: 100 nM

## CC(C)C[C@@H]1NC(=O)[C@@H]2CCCN2C(=O)[C@H](CO)NC(=O)[C@@H](NC(=O)[C@H](Cc2c[nH]cn2)NC(=O)[C@H](CO)NC(=O)[C@H](Cc2ccc(O)cc2)NC(=O)[C@H](CC(=O)O)NC(=O)CNC(=O)CN2CCN(CC(=O)O)CCN(CC(=O)O)CCN(CC(=O)O)CC2)CSSC[C@@H](C(=O)N[C@H](C(=O)N[C@@H](Cc2ccc(O)cc2)C(=O)N2CCC[C@H]2C(=O)N[C@@H](CC(=O)O)C(=O)N2CCC[C@H]2C(=O)N[C@@H](CCC(=O)O)C(=O)NCC(=O)NCC(=O)NCC(N)=O)[C@@H](C)O)NC(=O)[C@H](CCCCN)NC(=O)[C@H](Cc2c[nH]c3ccccc23)NC(=O)[C@H](Cc2c[nH]c3ccccc23)NC(=O)[C@@H]2CCCN2C(=O)[C@H](Cc2ccc(O)cc2)NC(=O)[C@H](Cc2ccc(O)cc2)NC(=O)[C@H](CCCNC(=N)N)NC1=O [^68Ga‐HZ20, metal not drawn]
[5]
  in vitro stability (radiochemical purity by radio-HPLC): stable
ACE2 [6]
  SUVmax breast: 2.72
  SUVmax testis: 5.57
  blood-brain barrier penetration: poor
ACE2 [7]
  uptake in immature follicles: no uptake
  uptake in stroma of ovary: slight uptake
In vivo
  SUV at 2 h: 0.099 ± 0.0065 SUV
  tissue uptake per volume at 2 h: 0.56 %ID/mL
clinical; female, SUVmax breast
  SUV at 1.5 h: 1.78 ± 0.17 SUV
clinical; female, SUVmax breast, old group
  SUV at 1.5 h: 1.35 ± 0.22 SUV
clinical; female, SUVmax breast, young group
  SUV at 1.5 h: 2.21 ± 0.25 SUV
clinical; female, SUVmax corpus luteum
  SUV: 7.35 SUV
clinical; female, SUVmax gallbladder
  SUV at 1.5 h: 2.76 SUV
clinical; female, SUVmax ovary
  SUV at 1.5 h: 2.12 ± 1.42 SUV
clinical; female, SUVmax renal cortex
  SUV at 1.5 h: 38.8 SUV
clinical; female, SUVmax uterus
  SUV at 1.5 h: 2.41 ± 0.34 SUV
clinical; SUVmax conjunctiva
  SUV at 1.5 h: 1.71 ± 0.08 SUV
clinical; SUVmax esophagus
  SUV at 1.5 h: 1.63 ± 0.11 SUV
clinical; SUVmax liver
  SUV at 1.5 h: 1.59 ± 0.14 SUV
clinical; SUVmax nasal
  SUV at 1.5 h: 1.91 ± 0.18 SUV
clinical; SUVmax pancreas
  SUV at 1.5 h: 1.63 ± 0.24 SUV
clinical; SUVmax rectum
  SUV at 1.5 h: 1.46 ± 0.13 SUV
clinical; SUVmax renal cortex (right kidney in Figure 7)
  SUV at 1.5 h: 25.7 ± 1.39 SUV
clinical; SUVmax renal cortex, left kidney
  SUV at 1.5 h: 22.2 ± 1.78 SUV
clinical; SUVmax renal cortex, right kidney, person recovered from COVID-19, 7 months post infection, 90 min
  SUV at 1.5 h: 18.4 SUV
clinical; SUVmax renal medulla
  SUV at 1.5 h: 18.3 ± 1.42 SUV
clinical; male, SUVmax gallbladder
  SUV at 1.5 h: 0.75 SUV
clinical; male, SUVmax gallbladder, male recovered from COVID-19, 90 min
  SUV at 1.5 h: 4.32 SUV
clinical; male, SUVmax left testis
  SUV at 1.5 h: 4.58 ± 0.4 SUV
clinical; male, SUVmax left testis, male recovered from COVID-19, 90 min
  SUV at 1.5 h: 8.65 SUV
clinical; male, SUVmax penis
  SUV at 1.5 h: 2 ± 0.25 SUV
clinical; male, SUVmax renal cortex
  SUV at 1.5 h: 23.9 SUV
clinical; male, SUVmax renal cortex, left kidney, male recovered from COVID-19, 90 min
  SUV at 1.5 h: 11.6 SUV
clinical; male, SUVmax right testis
  SUV at 1.5 h: 4.51 ± 0.54 SUV
clinical; male, SUVmax right testis, male recovered from COVID-19, 90 min
  SUV at 1.5 h: 8.79 SUV
clinical; male, SUVmax small intestine
  SUV at 1.5 h: 0.48 SUV
clinical; male, SUVmax testis
  SUV at 1.5 h: 4.46 ± 0.3 SUV
